Earlier results as cited in publication PMC5810417.
Where two headings read alike, the source gives them in different places. One block for each substance: values may come before it.

Assays:
Prdx6 (Homo sapiens) [1] = target: Prdx6 (Homo sapiens) (UniProt P30041)
Prdx6 (Homo sapiens) [2] = target: Prdx6 (Homo sapiens) (UniProt P30041); assay: PLA2 activity inhibition
Prdx6 (Homo sapiens) [3] = target: Prdx6 (Homo sapiens) (UniProt P30041); remark: listed apart in the source
Prdx6 (Homo sapiens) [4] = target: Prdx6 (Homo sapiens) (UniProt P30041); remark: listed apart in the source

Substance: Prdx6 (from UniProt P30041)
- Kd (Prdx6 (Homo sapiens) [1]): < 0.02 µM

Substance: p67phox (from UniProt P19878)
- Ki (Prdx6 (Homo sapiens) [2]): 0.065 µM

Substance: πGST1-1B and D (from UniProt P09211)
- Kd (Prdx6 (Homo sapiens) [3]): 0.1 µM

Continued, values first:

- Ki (Prdx6 (Homo sapiens) [2]): 0.13 µM
Substance: SP-A (from UniProt Q8IWL2)

- Kd (Prdx6 (Homo sapiens) [4]): 0.05 µM
Substance: πGST1-1A and C (from UniProt P09211)
